Data on three molecules can be found in US20260116963A1 (GENERATE BIOMEDICINES, published 2026).

For experiment [1], the target named is T1, human IL-13 (human, UniProt P35225 25-146, limits assumed).
T1 construct: The KinExA antigen was detected with an anti-HIS IgG, so it probably carried a HIS tag; also called Interleukin-13; hIL-13
The experiment is described as follows: KinExA, 25 C.

Experiment [2] concerns the target T1, human IL-13. The experiment is described as follows: cell-based or functional assay.
Experiment [3] addresses T1, human IL-13. The experiment is described as follows: KinExA, solution equilibrium, free antigen captured on Ref1-coated beads, 25 C. Background: Kinetic exclusion samples the free partner from a solution-phase mixture.
The next experiment concerns the target cynomolgus IL-13 (cynomolgus, UniProt Q0PW92 21-132). The description is as above.
Another experiment has as its target T2, mouse IL-13 (mouse, UniProt P20109 19-131, limits assumed).
T2 construct: also called recombinant mouse IL-13
T2 sequence (looked up): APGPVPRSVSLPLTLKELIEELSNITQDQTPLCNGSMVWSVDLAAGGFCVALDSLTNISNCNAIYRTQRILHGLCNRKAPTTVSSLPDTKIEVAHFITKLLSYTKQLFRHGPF
The experiment is described as follows: SPR (Biacore 8K+), antibody captured on anti-human IgG Fc chip, IL-13 as analyte, 25 C. In general terms: In SPR one partner is held on a chip, and binding of the other changes the refractive index at the surface.

The target in experiment [4] is T1, human IL-13. The experiment is described as follows: SPR (Biacore 8K+), antibody captured, human IL-13 as analyte, 37 C; less than 5% decay in 5,400 s, KD estimated.
In experiment [5] the target is T1, human IL-13. Put plainly: SPR (Biacore 8K+), antibody captured on anti-human Fc CM4 chip, human IL-13 0.6-10 nM as analyte, 37 C, 1:1 fit.
Experiment [6] addresses T1, human IL-13. The experiment is described as follows: SPR array (Carterra LSA), antibody captured on anti-human pAb HC30M chip, human IL-13 0.05-100 nM as analyte, 25 C, 1:1 fit.
Experiment [7] addresses T1, human IL-13. The experiment is described as follows: cell-based or functional assay. This is another data set of the same source.
The target in experiment [8] is T1, human IL-13. The experiment is described as follows: SPR (Biacore 8K+), antibody captured on anti-human pAb CM4 chip, human IL-13 0.6-10 nM as analyte, 37 C, 1:1 fit.

As a reminder, the Kd is the constant that tells how readily two partners part at equilibrium. The term koff denotes the first-order rate constant of dissociation. As a reminder, the kon is the rate constant with which the complex forms.

Chain of cynomolgus IL-13 (Q0PW92 entry or part of it): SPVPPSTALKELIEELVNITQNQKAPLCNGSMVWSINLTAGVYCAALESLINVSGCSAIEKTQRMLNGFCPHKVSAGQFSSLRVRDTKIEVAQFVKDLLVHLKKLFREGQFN
T1 sequence (P35225 other isoform, or with tags, fused parts or gaps limits assumed): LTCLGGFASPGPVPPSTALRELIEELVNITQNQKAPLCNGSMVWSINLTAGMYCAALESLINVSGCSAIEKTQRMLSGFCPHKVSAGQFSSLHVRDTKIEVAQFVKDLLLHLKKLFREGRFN

B1: AbG (antibody, human IgG1, kappa)
heavy: QVTLRESGPALVKPTQTLTLTCTVSGASLSAYSVNWIRQPPGKALEWLAMIWGDGKIVYNSALKSRLTISKDTSKNQVVLTMTNMDPVDTATYYCAGDGYFPYAMDNWGQGSLVTVSSASTKGPSVFPLAPSSKSTSGGTAALGCLVKDYFPEPVTVSWNSGALTSGVHTFPAVLQSSGLYSLSSVVTVPSSSLGTQTYICNVNHKPSNTKVDKRVEPKSCDKTHTCPPCPAPELLGGPSVFLFPPKPKDTLYITREPEVTCVVVDVSHEDPEVKFNWYVDGVEVHNAKTKPREEQYNSTYRVVSVLTVLHQDWLNGKEYKCKVSNKALPAPIEKTISKAKGQPREPQVYTLPPSREEMTKNQVSLTCLVKGFYPSDIAVEWESNGQPENNYKTTPPVLDSDGSFFLYSKLTVDKSRWQQGNVFSCSVMHEALHNHYTQKSLSLSPGK
light: DIVMTQSPDSLSVSLGERATINCRASKSVDSYGNSYMHWYQQKPGQPPKLLIYLASNLESGVPDRFSGSGSGTDFTLTISSLQAEDVAVYYCQQNNEDPRTFGGGTKVEIKRTVAAPSVFIFPPSDEQLKSGTASVVCLLNNFYPREAKVQWKVDNALQSGNSQESVTEQDSKDSTYSLSSTLTLSKADYEKHKVYACEVTHQGLSSPVTKSFNRGEC
notes: also called Antibody AbG
On to B1, for which the “fold higher affinity than Ref2” value with human IL-13 [1] came out at 40 fold. Besides, in the experiment with human IL-13 [2], the “IC50, HEK-Blue IL-13Ra1/IL-4Ra STAT6-SEAP reporter assay” value is 0.174 µg/mL. Further, the Kd is 0.00023 nM with human IL-13 [3]; 0.00072 nM with cynomolgus IL-13; less than 0.015 nM with human IL-13 [4]; 0.0126 nM in the experiment with human IL-13 [5]; less than 0.1 nM with human IL-13 [6]. Further, the koff with human IL-13 [3] was 4.8e-07 s⁻¹; in the experiment with cynomolgus IL-13, 1.77e-06 s⁻¹; with human IL-13 [5], 7.68e-06 s⁻¹. Also, the on-rate (kon) amounted to 2.06e+06 M⁻¹ s⁻¹ with human IL-13 [3], 2.46e+06 M⁻¹ s⁻¹ with cynomolgus IL-13 and 639000 M⁻¹ s⁻¹ with human IL-13 [5]. Besides, the binding result with mouse IL-13 is “no binding”.

B2: Ref3 (antibody, human IgG1, kappa)
heavy: QVTLRESGPALVKPTQTLTLTCTVSGFSLSAYSVNWIRQPPGKALEWLAMIWGDGKIVYNSALKSRLTISKDTSKNQVVLTMTNMDPVDTATYYCAGDGYYPYAMDNWGQGSLVTVSSASTKGPSVFPLAPSSKSTSGGTAALGCLVKDYFPEPVTVSWNSGALTSGVHTFPAVLQSSGLYSLSSVVTVPSSSLGTQTYICNVNHKPSNTKVDKRVEPKSCDKTHTCPPCPAPEFEGGPSVFLFPPKPKDTLYITREPEVTCVVVDVSHEDPEVKFNWYVDGVEVHNAKTKPREEQYNSTYRVVSVLTVLHQDWLNGKEYKCKVSNKALPASIEKTISKAKGQPREPQVYTLPPSREEMTKNQVSLTCLVKGFYPSDIAVEWESNGQPENNYKTTPPVLDSDGSFFLYSKLTVDKSRWQQGNVFSCSVMHEALHNHYTQKSLSLSPGK
light: DIVMTQSPDSLSVSLGERATINCRASKSVDSYGNSFMHWYQQKPGQPPKLLIYLASNLESGVPDRFSGSGSGTDFTLTISSLQAEDVAVYYCQQNNEDPRTFGGGTKVEIKRTVAAPSVFIFPPSDEQLKSGTASVVCLLNNFYPREAKVQWKVDNALQSGNSQESVTEQDSKDSTYSLSSTLTLSKADYEKHKVYACEVTHQGLSSPVTKSFNRGEC
On to B2, for which, in the experiment with human IL-13 [7], the “Mean IC50 (nM) Donor 1, Phospho-STAT6 assay in human CD14+ monocytes” value was 32.2 nM; the “Mean IC50 (nM) Donor 2, Phospho-STAT6 assay in human CD14+ monocytes” value is 31.3 nM; the “Mean IC50 (nM) Donor 3, Phospho-STAT6 assay in human CD14+ monocytes” value was 33.9 nM. In the experiment with mouse IL-13, the binding result was “no binding”. In addition, in the experiment with human IL-13 [5], the affinity, expressed as Kd, was 0.0507 nM; the koff stood at 2.52e-05 s⁻¹; the kon was 501000 M⁻¹ s⁻¹.

B3: Ref1 (antibody, human IgG1, kappa)
heavy: QVTLRESGPALVKPTQTLTLTCTVSGFSLSAYSVNWIRQPPGKALEWLAMIWGDGKIVYNSALKSRLTISKDTSKNQVVLTMTNMDPVDTATYYCAGDGYYPYAMDNWGQGSLVTVSSASTKGPSVFPLAPSSKSTSGGTAALGCLVKDYFPEPVTVSWNSGALTSGVHTFPAVLQSSGLYSLSSVVTVPSSSLGTQTYICNVNHKPSNTKVDKRVEPKSCDKTHTCPPCPAPELLGGPSVFLFPPKPKDTLYITREPEVTCVVVDVSHEDPEVKFNWYVDGVEVHNAKTKPREEQYNSTYRVVSVLTVLHQDWLNGKEYKCKVSNKALPAPIEKTISKAKGQPREPQVYTLPPSREEMTKNQVSLTCLVKGFYPSDIAVEWESNGQPENNYKTTPPVLDSDGSFFLYSKLTVDKSRWQQGNVFSCSVMHEALHNHYTQKSLSLSPGK
light: DIVMTQSPDSLSVSLGERATINCRASKSVDSYGNSFMHWYQQKPGQPPKLLIYLASNLESGVPDRFSGSGSGTDFTLTISSLQAEDVAVYYCQQNNEDPRTFGGGTKVEIKRTVAAPSVFIFPPSDEQLKSGTASVVCLLNNFYPREAKVQWKVDNALQSGNSQESVTEQDSKDSTYSLSSTLTLSKADYEKHKVYACEVTHQGLSSPVTKSFNRGEC
notes: hIgG1-YTE
For B3, the “IC50, HEK-Blue IL-13Ra1/IL-4Ra STAT6-SEAP reporter assay” value with human IL-13 [2] was found to be 0.143 µg/mL. Also, the equilibrium dissociation constant (Kd) was 0.00613 nM with human IL-13 [3]; 0.00052 nM in the experiment with cynomolgus IL-13; 0.0551 nM in the experiment with human IL-13 [5]; 0.0484 nM with human IL-13 [8]; less than 0.1 nM in the experiment with human IL-13 [6]. The koff in the experiment with human IL-13 [3] was 9.37e-06 s⁻¹; in the experiment with cynomolgus IL-13 it was 1.09e-06 s⁻¹; in the experiment with human IL-13 [5] it was 2.66e-05 s⁻¹; with human IL-13 [8], 2.64e-05 s⁻¹. For the same molecule, the on-rate constant (kon) in the experiment with human IL-13 [3] amounted to 1.53e+06 M⁻¹ s⁻¹; with cynomolgus IL-13, 2.09e+06 M⁻¹ s⁻¹; in the experiment with human IL-13 [5], 483000 M⁻¹ s⁻¹; with human IL-13 [8], 594000 M⁻¹ s⁻¹.
